# Source: IntAct's records for PubMed 26859457
# Tests used:
# [1] = target: Unc5b, Q8K1S3-1
# [2] = target: unc5b_rat Unc5b (UniProt O08722)
# Chain of unc5b_rat Unc5b (O08722 whole entry): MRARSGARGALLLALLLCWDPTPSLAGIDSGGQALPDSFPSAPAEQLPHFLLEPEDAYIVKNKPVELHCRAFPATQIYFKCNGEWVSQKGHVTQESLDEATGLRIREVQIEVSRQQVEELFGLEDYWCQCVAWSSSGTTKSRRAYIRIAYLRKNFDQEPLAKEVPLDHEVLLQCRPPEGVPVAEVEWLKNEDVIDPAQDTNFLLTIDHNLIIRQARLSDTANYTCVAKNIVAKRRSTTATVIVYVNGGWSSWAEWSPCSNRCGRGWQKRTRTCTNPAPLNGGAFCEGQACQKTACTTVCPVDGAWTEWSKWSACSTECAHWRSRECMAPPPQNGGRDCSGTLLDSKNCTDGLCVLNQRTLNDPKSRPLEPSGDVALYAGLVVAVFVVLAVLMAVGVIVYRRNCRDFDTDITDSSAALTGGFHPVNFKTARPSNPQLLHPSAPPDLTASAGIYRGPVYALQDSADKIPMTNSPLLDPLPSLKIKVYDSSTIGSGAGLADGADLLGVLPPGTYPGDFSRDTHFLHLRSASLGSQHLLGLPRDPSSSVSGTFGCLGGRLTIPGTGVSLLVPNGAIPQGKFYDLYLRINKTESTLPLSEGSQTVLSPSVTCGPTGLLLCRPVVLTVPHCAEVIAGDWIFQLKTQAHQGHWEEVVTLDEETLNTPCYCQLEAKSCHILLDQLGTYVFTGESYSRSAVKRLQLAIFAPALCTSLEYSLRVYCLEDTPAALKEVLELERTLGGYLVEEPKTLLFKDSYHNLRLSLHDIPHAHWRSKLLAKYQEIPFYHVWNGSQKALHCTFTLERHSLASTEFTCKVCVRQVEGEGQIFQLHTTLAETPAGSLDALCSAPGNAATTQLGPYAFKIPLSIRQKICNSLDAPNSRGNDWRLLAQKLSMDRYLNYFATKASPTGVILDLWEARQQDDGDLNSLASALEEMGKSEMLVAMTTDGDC
# Chain of Unc5b, Q8K1S3-1 (Q8K1S3 whole entry): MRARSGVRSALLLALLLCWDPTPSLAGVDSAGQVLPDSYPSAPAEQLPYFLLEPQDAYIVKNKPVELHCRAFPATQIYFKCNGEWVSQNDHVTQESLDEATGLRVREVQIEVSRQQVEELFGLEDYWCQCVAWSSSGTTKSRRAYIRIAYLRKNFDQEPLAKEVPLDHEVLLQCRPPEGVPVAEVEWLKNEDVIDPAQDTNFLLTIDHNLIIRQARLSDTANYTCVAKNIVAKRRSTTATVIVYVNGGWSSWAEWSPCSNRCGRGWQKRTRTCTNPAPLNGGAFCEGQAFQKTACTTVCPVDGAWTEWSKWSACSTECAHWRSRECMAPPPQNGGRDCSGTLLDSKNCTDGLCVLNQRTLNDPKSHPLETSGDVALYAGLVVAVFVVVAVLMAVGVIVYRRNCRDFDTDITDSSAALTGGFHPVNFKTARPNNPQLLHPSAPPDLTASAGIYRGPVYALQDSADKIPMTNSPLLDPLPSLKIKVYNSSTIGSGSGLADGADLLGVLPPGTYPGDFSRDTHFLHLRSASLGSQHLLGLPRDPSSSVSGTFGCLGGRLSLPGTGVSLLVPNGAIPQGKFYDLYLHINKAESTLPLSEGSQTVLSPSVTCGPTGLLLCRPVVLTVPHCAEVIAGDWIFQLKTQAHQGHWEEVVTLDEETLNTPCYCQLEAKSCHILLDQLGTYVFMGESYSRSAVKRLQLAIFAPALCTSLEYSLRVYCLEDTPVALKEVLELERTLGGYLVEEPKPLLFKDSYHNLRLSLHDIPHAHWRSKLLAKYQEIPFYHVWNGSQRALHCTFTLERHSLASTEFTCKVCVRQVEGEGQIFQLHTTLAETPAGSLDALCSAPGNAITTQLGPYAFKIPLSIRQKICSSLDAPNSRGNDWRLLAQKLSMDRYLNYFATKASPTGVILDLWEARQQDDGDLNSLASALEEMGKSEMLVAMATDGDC
Substance,effect of a mutation on the interaction [1],effect of a mutation on the interaction [2]
Netrin-1 (Mus musculus) (from UniProt O09118) R348A;R349A,disrupting interaction strength,–
Netrin-1 (Homo sapiens) (from UniProt O95631) Y357F,–,with no effect
Netrin-1 (Homo sapiens) (from UniProt O95631) S360A,–,decreasing interaction strength
Netrin-1 (Mus musculus) (from UniProt O09118) R351A;N353A,decreasing interaction strength,–
Netrin-1 (Homo sapiens) (from UniProt O95631) K358L,–,decreasing interaction strength
Netrin-1 (Homo sapiens) (from UniProt O95631) R348A;R349A;R351A,–,decreasing interaction strength
Netrin-1 (Homo sapiens) (from UniProt O95631) N353A,–,decreasing interaction strength
Netrin-1 (Homo sapiens) (from UniProt O95631) R348W,–,with no effect
